For this assay, the target named is T1, human cyclin D1 (human, UniProt P24385 1-295).
T1 construct: Endogenous 35 kDa protein in co-immunoprecipitations; also called p35^cyclin D1; p35
In words: anti-cyclin D1 immunoprecipitation.

Bounds are passed on as bounds.

The values that follow come from patent EP0665886B1 (COLD SPRING HARBOR LABORATORY, dated 2003).

T1 sequence (P24385 whole entry): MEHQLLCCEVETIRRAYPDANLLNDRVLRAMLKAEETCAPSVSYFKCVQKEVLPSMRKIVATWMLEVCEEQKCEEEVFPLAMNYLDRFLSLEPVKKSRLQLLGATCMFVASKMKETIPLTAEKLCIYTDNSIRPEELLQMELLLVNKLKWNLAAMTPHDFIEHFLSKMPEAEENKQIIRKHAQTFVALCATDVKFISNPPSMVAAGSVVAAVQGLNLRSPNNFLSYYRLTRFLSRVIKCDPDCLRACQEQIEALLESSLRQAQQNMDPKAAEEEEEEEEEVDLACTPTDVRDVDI

For the molecule “p21 (polypeptide of 21 kDa apparent molecular weight)”, the share of cyclin D1-associated protein lost in RIPA buffer (0.1% SDS) against NP40 (0.5%) buffer is > 90%.

B1: human CDK4 (enzyme, UniProt P11802 1-303, looked up)
chain: MATSRYEPVAEIGVGAYGTVYKARDPHSGHFVALKSVRVPNGGGGGGGLPISTVREVALLRRLEAFEHPNVVRLMDVCATSRTDREIKVTLVFEHVDQDLRTYLDKAPPPGLPAETIKDLMRQFLRGLDFLHANCIVHRDLKPENILVTSGGTVKLADFGLARIYSYQMALTPVVVTLWYRAPEVLLQSTYATPVDMWSVGCIFAEMFRRKPLFCGNSEADQLGKIFDLIGLPPEDDWPRDVSLPRGAFPPRGPRPVQSVVPEMEESGAQLLLEMLTFNPHKRISAFRALQHSYLHKDEGNPE
notes: also called PSK-J3; p33^CDK4
On to B1, for which the “share of cyclin D1-associated protein lost in RIPA buffer (0.1% SDS) against NP40 (0.5%) buffer” value is > 90%.
